1 protein from PMC3787135 can be followed below.

Substrate in this data set: Nc1ncnc2c1ncn2[C@@H]1O[C@H](COP(=O)(O)OP(=O)(O)OP(=O)(O)O)[C@@H](O)[C@H]1O
The experiment in a line: purified protein. As to conditions: microtubules; standard assay conditions; apparent Km from gliding velocity.

B1: kinesin-II (wild type heterotrimer KLP-11/KLP-20/KAP-1) (Caenorhabditis elegans) (protein)
chain 1: MVEIMKKSSKQETVKVIVRCRPLSSQEIANNYSKIVHMRPQRGQIELKNPKEQDEPSKDFTFDAIYDENSTQSDLYEETFRDLVDSVLNGYNATIFAYGQTGTGKTHTMEGKSSDPEQRGVIYKCIDHIFEHMAASHNQEYLVRASYLEIYQEELRDLLEAESNKKLEIKERPDGGVYVKDLTSKLTRTVGEIHEVMIRGNGHRSVGRTNMNEHSSRSHAIFIITVECSRIGEDGESHITVGRLNLVDLAGSERQSKTGATGERFKEATKINLSLSALGNVISALVDAKSAHIPYRDSKLTRLLQDSLGGNSKTVMVACIGPASYNFEETLGTLRYANRAKNIKNQPKINEDPKDALLREFQEEIEMLREQLKQRKTRSRDGATQSFYDAERAKLEDDIEAIQKDDSLIKHEKDRLIREIQEKHDLLEKERIEQARVAERIANIQSRLIVGSEEDGRLESRTKEQHAQLEKKRRELAEQKRREREMVEALERQEEDTVDLKQTFSDLRTEVEAKTKKLKKMLIKLRQARNEIRDVSGAYSDERQDLDQTIAEVSKELKLKLLIVENFIPRDVSERIKERAEWNEDSFEWNVNAFQSTSSNSSTPLNNTIEVNEDGVFTRSSGADSGVSVSGGNGTPATSQFLDKRLVATPGCRRPMSMCERMLVETAREQFGAQRRPPISGSGSFVEATIPEETIRFCGENVVVFSALERFVPEVTDSDPSTFSNSMMMSARRPSIENLTIDASKVLVPILNQSTMILKNSKNGQARNDTMPPNGSMRRSQN
chain 2: MEGAEKVKVVVRCRPISTTEKLQGHKIAVTCNDEEKAVNIKSLSQEDPPRTFYFDAVFSPNTDQMTVYNVAARPIVENVLKGYNGTIFAYGQTGTGKTFTMAGDLEPVEMRGIIPNSFAHIFDHIAKCQHDTTFLVRVSYLEIYNEEIRDLLSKDHNGNLEIKERPDVGVYVRNLSNPTVENASKMQALMEFGSKNRKVGATAMNLESSRSHAMFTVTIESCRNGLVTQGKLQLVDLAGSERQSKTGAQGERLKEAAKINLSLSTLGNVISSLVDGKSTHIPYRNSKLTRLLQDSLGGNSKTVMIANVGPATYNYDETLSTLRYANRAKNIQNVAKINEDPKDAQLRKFQLEIEALRKILDEENPGDDENQEEAWEAKMQEREVEMEKKRKILEERVNSAVNDEETHRLVKEMMENEAELKKARSEHEKLRSKLEKIEKKLIVGGENLLEKVEEQAKLLEVNNKELEQSKFQEAHLRTQLEERTAVKVEIEERYSSLQEEAFVKSKKIKKVSNELKDARAELKDLEEDHQRQVEAMLDDIRQLRKELLLNIAIIDEYIPVEHVELIEKYVSWSEEHGDWQLKAIAYTGNNMRASAPPAKKEFSNNNQTVPMYYSYRADLGASTAEHRPRTSSKKHRASIRLQQLLT
What is called Vmax is the rate approached at saturating substrate. Consider B1, for which the Vmax turned out to be 15.6 µM/min.
